Results as given in patent US8962819B2, “Anti-C5 alpha antibodies” (Adienne S.A., priority 2002, dated 2015).
“Also recorded” adds a separate entry of the source.

Assays:
[1] = target: T1, C5 hemolytic activity in human serum (Homo sapiens, UniProt P01031); test: Inhibition of C5 hemolytic activity in serum; assay type: biochemical; conditions: FIG. 5A
T1 construct: from tissue; host or cells: human serum
Experimental: (§1) Measurements were performed as described in example 8, using sera from human (panel A), rat (panel B), rabbit (panel C), mouse (panel D). Since the amino acid sequence corresponding to the cleavage site of convertase on the C5 alpha chain is conserved in several animal species, it was furthermore evaluated, by hemolytic assay, the ability of TS-A12/22 antibody to inhibit conversion of C5 to C5a also in rabbit, mouse and rat sera.

[2] = target: T2, C5 hemolytic activity in rat serum (Rattus norvegicus, UniProt P08650); test: Inhibition of C5 hemolytic activity in serum; assay type: biochemical
T2 construct: from tissue; host or cells: rat serum
T2 sequence (P08650 679-1681 limits assumed): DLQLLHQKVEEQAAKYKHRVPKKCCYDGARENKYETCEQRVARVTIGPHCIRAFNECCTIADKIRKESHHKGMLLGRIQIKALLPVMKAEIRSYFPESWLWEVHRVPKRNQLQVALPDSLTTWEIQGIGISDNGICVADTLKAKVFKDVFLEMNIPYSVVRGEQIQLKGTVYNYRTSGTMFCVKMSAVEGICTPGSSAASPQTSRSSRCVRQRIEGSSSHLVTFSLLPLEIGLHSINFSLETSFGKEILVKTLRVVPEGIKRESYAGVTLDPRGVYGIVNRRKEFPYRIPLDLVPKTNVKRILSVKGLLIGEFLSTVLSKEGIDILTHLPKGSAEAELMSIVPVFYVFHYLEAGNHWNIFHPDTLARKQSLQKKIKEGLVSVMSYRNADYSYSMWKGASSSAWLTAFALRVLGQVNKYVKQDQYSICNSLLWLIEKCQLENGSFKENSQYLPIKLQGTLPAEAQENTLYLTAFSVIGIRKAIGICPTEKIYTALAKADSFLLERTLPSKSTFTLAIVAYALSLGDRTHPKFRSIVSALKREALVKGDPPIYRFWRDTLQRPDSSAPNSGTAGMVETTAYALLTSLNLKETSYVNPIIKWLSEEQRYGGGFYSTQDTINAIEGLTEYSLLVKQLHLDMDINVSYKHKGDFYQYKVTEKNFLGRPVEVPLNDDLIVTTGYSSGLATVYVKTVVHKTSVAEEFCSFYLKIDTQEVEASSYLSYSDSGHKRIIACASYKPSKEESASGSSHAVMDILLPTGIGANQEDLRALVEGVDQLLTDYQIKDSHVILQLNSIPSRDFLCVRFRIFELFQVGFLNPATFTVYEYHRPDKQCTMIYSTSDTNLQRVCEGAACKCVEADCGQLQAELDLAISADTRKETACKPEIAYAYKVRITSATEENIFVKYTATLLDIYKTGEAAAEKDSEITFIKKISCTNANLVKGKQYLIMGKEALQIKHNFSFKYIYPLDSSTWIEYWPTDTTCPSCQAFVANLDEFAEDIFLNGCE
T2 sequence (P08650 19-674 limits assumed): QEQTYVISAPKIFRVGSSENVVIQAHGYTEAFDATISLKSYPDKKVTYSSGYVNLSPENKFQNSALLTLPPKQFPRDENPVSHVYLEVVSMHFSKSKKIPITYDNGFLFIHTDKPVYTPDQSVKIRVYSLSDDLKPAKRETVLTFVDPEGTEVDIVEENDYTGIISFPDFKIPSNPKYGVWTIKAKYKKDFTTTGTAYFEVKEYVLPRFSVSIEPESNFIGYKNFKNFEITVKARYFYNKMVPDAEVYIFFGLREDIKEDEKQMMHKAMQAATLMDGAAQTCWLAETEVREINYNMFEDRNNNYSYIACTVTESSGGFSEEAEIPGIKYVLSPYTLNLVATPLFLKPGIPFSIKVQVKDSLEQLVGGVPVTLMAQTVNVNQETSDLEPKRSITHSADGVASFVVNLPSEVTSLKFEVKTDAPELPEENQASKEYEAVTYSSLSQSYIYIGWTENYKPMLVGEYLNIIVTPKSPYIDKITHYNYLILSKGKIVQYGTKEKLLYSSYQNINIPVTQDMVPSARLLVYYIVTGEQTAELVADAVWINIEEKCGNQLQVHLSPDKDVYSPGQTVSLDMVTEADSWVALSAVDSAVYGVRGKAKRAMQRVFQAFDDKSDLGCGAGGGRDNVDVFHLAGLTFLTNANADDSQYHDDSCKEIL
Experimental: as §1

[3] = target: T3, C5 hemolytic activity in mouse serum (Mus musculus, UniProt P06684); test: Inhibition of C5 hemolytic activity in serum; assay type: biochemical; conditions: FIG. 5D
T3 construct: from tissue; host or cells: mouse serum
T3 sequence (P06684 679-1680 limits assumed): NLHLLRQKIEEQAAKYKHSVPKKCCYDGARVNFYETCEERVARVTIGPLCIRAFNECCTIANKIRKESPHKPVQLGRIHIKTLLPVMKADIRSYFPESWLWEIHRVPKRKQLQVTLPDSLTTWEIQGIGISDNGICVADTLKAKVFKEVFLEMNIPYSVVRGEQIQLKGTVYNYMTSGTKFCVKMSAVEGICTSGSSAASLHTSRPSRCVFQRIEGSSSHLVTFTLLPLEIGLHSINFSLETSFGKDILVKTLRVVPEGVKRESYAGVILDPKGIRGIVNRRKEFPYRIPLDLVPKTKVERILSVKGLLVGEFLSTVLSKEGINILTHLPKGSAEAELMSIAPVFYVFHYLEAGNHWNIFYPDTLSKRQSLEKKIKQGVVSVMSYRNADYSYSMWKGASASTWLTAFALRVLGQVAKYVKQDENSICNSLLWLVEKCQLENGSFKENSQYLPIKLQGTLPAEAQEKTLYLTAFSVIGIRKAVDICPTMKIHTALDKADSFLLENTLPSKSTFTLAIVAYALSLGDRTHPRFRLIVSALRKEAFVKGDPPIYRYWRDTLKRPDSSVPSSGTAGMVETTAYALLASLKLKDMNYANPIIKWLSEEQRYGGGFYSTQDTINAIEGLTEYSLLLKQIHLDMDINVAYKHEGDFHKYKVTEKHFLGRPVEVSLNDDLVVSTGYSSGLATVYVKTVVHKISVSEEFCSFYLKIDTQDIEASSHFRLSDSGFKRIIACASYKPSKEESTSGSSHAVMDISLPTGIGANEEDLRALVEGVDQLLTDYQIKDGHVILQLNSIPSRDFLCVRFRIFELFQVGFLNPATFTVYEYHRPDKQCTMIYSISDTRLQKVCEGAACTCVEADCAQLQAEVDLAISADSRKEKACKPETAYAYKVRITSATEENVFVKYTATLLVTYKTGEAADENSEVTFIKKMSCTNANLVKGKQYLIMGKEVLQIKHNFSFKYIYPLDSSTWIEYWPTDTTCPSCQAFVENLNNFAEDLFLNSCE
T3 sequence (P06684 19-674 partner limits assumed): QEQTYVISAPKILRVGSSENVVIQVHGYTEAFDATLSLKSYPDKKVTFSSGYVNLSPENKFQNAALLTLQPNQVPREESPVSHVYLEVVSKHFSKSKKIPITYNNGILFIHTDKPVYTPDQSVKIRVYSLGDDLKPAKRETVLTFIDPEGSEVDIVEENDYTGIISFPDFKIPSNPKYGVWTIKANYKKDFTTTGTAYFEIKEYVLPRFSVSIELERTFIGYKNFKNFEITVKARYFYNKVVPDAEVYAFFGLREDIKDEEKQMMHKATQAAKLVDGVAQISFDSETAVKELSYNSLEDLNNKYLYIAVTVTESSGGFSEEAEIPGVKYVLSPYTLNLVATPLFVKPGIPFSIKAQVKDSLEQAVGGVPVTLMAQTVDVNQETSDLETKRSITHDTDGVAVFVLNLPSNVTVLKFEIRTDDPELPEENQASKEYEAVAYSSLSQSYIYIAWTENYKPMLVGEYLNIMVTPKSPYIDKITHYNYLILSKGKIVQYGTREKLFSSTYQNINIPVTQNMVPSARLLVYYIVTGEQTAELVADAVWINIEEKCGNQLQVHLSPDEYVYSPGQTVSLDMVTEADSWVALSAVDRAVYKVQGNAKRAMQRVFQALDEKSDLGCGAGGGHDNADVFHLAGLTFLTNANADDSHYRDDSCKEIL
Experimental: as §1

[4] = system: C5 hemolytic activity in rabbit serum; test: Inhibition of C5 hemolytic activity in serum; assay type: biochemical
Experimental: as §1

[5] = target: T4, C5 (Homo sapiens, UniProt P01031); test: ELISA of C5a released after cleavage of C5 by C5 convertase; assay type: biochemical; conditions: FIG. 1A, classical pathway
T4 construct: C5 alpha and beta subunits were obtained by incubating 50 μg of C5; purchased Quidel
T4 sequence (P01031 678-1676 limits assumed): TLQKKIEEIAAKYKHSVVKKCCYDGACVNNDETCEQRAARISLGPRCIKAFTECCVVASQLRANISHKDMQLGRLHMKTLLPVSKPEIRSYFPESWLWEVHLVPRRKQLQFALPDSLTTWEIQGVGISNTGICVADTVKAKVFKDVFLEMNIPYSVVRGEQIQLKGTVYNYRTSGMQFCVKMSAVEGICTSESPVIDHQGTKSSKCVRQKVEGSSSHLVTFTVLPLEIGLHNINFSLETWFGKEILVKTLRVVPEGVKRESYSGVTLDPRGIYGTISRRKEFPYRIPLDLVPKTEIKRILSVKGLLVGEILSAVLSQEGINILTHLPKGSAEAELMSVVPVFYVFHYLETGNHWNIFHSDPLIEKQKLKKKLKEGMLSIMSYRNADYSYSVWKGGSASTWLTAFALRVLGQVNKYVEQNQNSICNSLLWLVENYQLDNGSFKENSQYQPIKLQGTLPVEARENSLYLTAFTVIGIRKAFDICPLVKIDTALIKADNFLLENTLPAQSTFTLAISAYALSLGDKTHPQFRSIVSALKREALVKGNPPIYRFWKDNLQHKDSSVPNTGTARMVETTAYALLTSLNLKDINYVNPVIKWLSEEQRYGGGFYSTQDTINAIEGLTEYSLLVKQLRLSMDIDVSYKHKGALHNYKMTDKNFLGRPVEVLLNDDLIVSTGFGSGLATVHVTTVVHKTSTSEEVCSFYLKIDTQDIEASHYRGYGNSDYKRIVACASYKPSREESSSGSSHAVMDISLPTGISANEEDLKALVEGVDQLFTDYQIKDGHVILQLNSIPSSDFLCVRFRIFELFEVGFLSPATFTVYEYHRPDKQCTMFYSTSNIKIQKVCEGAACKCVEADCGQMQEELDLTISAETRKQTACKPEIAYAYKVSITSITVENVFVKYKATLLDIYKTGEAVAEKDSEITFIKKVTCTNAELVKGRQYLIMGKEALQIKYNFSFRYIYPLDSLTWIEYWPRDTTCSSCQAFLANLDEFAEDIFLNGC
T4 sequence (P01031 19-673 partner limits assumed): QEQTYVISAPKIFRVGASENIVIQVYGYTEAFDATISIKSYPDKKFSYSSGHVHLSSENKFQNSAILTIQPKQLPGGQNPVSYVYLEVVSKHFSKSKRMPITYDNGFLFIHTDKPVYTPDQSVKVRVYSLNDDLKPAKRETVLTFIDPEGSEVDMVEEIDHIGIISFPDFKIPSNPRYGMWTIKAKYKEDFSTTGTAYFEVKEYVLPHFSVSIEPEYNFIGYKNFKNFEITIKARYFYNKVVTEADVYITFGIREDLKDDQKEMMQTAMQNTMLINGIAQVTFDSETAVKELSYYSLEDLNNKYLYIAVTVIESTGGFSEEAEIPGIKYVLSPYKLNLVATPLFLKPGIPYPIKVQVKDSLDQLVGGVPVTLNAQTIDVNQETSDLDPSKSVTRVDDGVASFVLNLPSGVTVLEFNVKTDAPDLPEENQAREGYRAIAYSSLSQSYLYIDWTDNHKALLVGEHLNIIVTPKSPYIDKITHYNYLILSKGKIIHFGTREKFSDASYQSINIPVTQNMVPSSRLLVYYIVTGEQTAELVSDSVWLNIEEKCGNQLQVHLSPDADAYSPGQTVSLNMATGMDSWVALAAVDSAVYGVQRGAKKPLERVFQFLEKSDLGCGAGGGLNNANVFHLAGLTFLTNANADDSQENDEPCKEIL
Experimental: Panel A) The ELISA assay measures the amount of C5a fragment released in the supernatant after enzymatic cleavage of C5, using antibodies anti-C5 as described in example 6. […] Sheep erythrocytes sensitised with antibodies and coated until the C3b (EAC1-3b) complement step were added to the mixture of TS-A12 or TS-A12/22 and C5, and the mixture was further incubated for 30 minutes at 37° C. (panel B).
The obtained anti-C5 scFv fragments were further characterised for their ability to inhibit the hemolytic activity of C5 or, in other words, to block conversion of the C5 component to C5a. […] At the end of this procedure, cell lysis was measured as percentage of the control of total lysis in distilled H2O (see FIG. 1, panel B). The inhibition of C5a and TCC production by the scFv TS-A12 and TS-A12/22 was measured by means of ELISA using the monoclonal antibody 17/5 as the capture antibody and antibody G25/2 as detection antibody according to what has been described in Opperman et al., 1991, Complement Inflamm. […] The presence of TCC was measured using antibody aE11 as the capture antibody and a biotinylated anti-C5 antibody (SIGMA-ALDRICH®) followed by alkaline phosphatase-conjugated streptavidin, as described by Tedesco et al. (1997, J Exp. Med. 185:1619).

[6] = target: T5, factor C5 (Homo sapiens, UniProt P01031); test: Surface plasmon resonance (BIACORE 2000) on C5 immobilized on chip; assay type: binding; conditions: TS-A12/22 versus TS-A12 after VL chain shuffling
T5 construct: C5 alpha and beta subunits were obtained by incubating 50 μg of C5; purchased Quidel
T5 sequence (P01031 678-1676 limits assumed): as the sequence (P01031 678-1676 limits assumed) above
T5 sequence (P01031 19-673 partner limits assumed): as the sequence (P01031 19-673 partner limits assumed) above
Experimental: The binding affinity of the Tsa-12 antibody, purified by means of FPLC on Superdex 75 (Pharmacia), for factor C5 was measured by means of BIACORE™ 2000 (a system that generates unique data on the interactions between proteins and other molecules). The microchip (CM5, Biacore) was prepared by direct conjugation of the C5 antigen with amines (20 μg/ml in 10 mM Sodium Acetate pH 4.5). The final level of immobilisation turned out to be approximately 1000 RU (Resonance Units). Association and dissociation of antibody molecules from the bio-chip were measured using an optical detection system (Surface Plasmon Resonance). The analysis was carried out at 25° C., at a flow of 15 μl/min, using 4 different scFv concentrations in the range comprised between 100-300 nM, in PBS, 0.005% P20 (Biacore). The binding curves were interpolated 1:1 according to the model of Langmuir, using the dedicated software termed BIAevaluation (version 3.5) with correction for the mass transfer. In order to increase the affinity, the TS-A12 antibody was subjected to substitution (“shuffling”) of the VL light chains. For this purpose the phagemid DNA was cut with BssHII and SaII to excise the VL region. This region was substituted with all the repertoire of VL chains of a preimmune library (Sblattero, D., and Bradbury A., 2000, Nat. Biotechnol. 18:75) that was prepared with same enzymes. […]

[7] = system: rat joint; test: Rat model of antigen-induced (BSA) arthritis, intra-articular scFv; assay type: in vivo
Experimental: Polymorphonuclear Leukocytes (PMN), isolated from intra-articular wash out of rats with arthritis induced by instillation of BSA (mBSA), were incubated with antibody TS-A12/22 or with an unrelated antibody, as described in example 10.
Saline solution: control without induced arthritis; mBSA: BSA-induced arthritis, untreated; unrelated: BSA-induced arthritis, treated with unrelated scFv antibody; Ts-a12/22: BSA-induced arthritis, treated with the antibody of the invention.
Histological sections of joints from rats treated with intra-articular injection of saline (A), BSA (B), BSA with TS-A12/22 (C) and BSA with the unrelated antibody (D) were analysed by immunofluorescence for the presence of complement components C3 and C9, as described in example 10.
In order to test the effect of the TS-A12/22 antibody in vivo, the influx of PMN was measured in the rat joint injected with BSA, BSA and TS-A12/22 or BSA and unrelated antibody. […] Moreover the deposition of the C3 and C9 complement components was checked on a histological section of the joint of the back paw of treated rats, by immunofluorescence with specific antisera and fluorescein-conjugated secondary antibody (FIG. 7). […] It was thus confirmed that the TS-A12/22 antibody inhibits the complement cascade at a step intermediate between C3 and C9 and therefore at the level of the conversion of C5 to C5a+C5b.

B1: TS-A12/22: anti-C5 scFv obtained from TS-A12 by VL chain shuffling; VH3/V-48 and Vλ3/V2-14; amino acid sequence SEQ ID NO:6 (protein, listed as Homo sapiens)
scFv: DIRMTQSPDSLAVSLGERATINCKSSQSVLYSSNNKNYLAWYQQKPGQPPKLLIYWASTRESGVPDRFSGSGSGTDFTLTISSLQAEDVAVYYCQQYYSTPQLTFGGRTKVDIKSGGSTITSYNVYYTKLSSSGTQVQLQQSEGGVVQPGRSLRLSCAASGFTFSSYGMNWVRQAPGKGLEWVSYISSSSSTIYYADSVKGRFTISRDNSKNTLYLQMNSLRAEDTAVYYCARGPGMDVWGQGTTVTVSS
- inhibition of hemolytic activity in serum [1]: capable of inhibiting
- efficiency of inhibition compared with human serum [2]: practically similar to that of human serum; also recorded: higher
- inhibition of hemolytic activity in serum ([2]; FIG. 5B): capable of inhibiting
- inhibition of hemolytic activity in serum [3]: capable of inhibiting
- efficiency of inhibition compared with human serum [4]: higher
- inhibition of hemolytic activity in serum ([4]; FIG. 5C): capable of inhibiting
- inhibition of formation of C5a [5]: inhibit almost completely
- increment of molar affinity [6]: approximately one order of magnitude
- deposition of C3 in the joint (immunofluorescence) ([7]; FIG. 7): remained unchanged; also recorded: does not affect
- deposition of C9 in the joint (immunofluorescence) ([7]; FIG. 7): strongly inhibited; also recorded: significantly reduces
- number of PMN in the joint wash out liquid ([7]; versus BSA or BSA and unrelated antibody, FIG. 6): significantly reduced; also recorded: drastically reduced
